Type in all cases: cell-based, human
Assay [1] has as its system AKT and S6 phosphorylation in PC-3 cells. As to the kind of experiment: RNASE4-induced phosphorylation of AKT and S6 (immunoblot). The following applies: serum-starved PC-3, RNASE4 1 μg/ml, time course. As for the experimental part:
FIGS. 11A-F. RNASE4 induces PC-3 cell proliferation and phosphorylation of AKT and S6. (A) Exogenous RNASE4 (1 μg/ml) stimulates PC-3 cells proliferation in the presence of 2% FBS. Cell numbers were determined by MTT assay. (B) Time course of AKT and S6 phosphorylation of serum-starved PC-3 cells by RNASE4 (1 μg/ml). Left panels, immunoblots; right panels, quantification of p-AKT and p-S6 normalized to total AKT and S6 by Image J. (C) Effect of AKT inhibitor MK-2206, PI3K inhibitors LY294002 and Wortmannin, and mTOR inhibitor Rapamycin on RNASE4-induced PC-3 cell proliferation. Cells were pre-incubated with the inhibitors at the indicated concentrations for 1 hour prior to be stimulated by RNASE4 (1 μg/ml) for 3 days. Cell numbers were determined by MTT assay. (D) Human phospho-RTK antibody array analysis of starved PC-3 cells treated with or without 1 μg/ml RNASE4 for 5 minutes. (E) Time course of AXL phosphorylation stimulated by RNASE4 in PC-3 cells. Serum-starved PC-3 cells were treated with 1 μg/ml RNASE4 for different time. Cell lysates were analyzed for total AXL and phopho-AXL by immunoblotting. Left panels, immunoblots; right panel, quantification phospho-AXL normalized to total AXL by Image J analysis. (F) Effect of AXL inhibitor R428 on RNASE4-induced PC-3 cell proliferation. […] Cell numbers were determined by MTT assay. […]

For assay [2], the system named is PC-3 cells. As to the kind of experiment: RNASE4-induced cell proliferation (MTT assay). As to conditions: exogenous RNASE4 1 μg/ml, PC-3, 2% FBS. How it is done: FIGS. 11A-F. RNASE4 induces PC-3 cell proliferation and phosphorylation of AKT and S6. (A) Exogenous RNASE4 (1 μg/ml) stimulates PC-3 cells proliferation in the presence of 2% FBS. Cell numbers were determined by MTT assay. (B) Time course of AKT and S6 phosphorylation of serum-starved PC-3 cells by RNASE4 (1 μg/ml). Left panels, immunoblots; right panels, quantification of p-AKT and p-S6 normalized to total AKT and S6 by Image J. (C) Effect of AKT inhibitor MK-2206, PI3K inhibitors LY294002 and Wortmannin, and mTOR inhibitor Rapamycin on RNASE4-induced PC-3 cell proliferation. Cells were pre-incubated with the inhibitors at the indicated concentrations for 1 hour prior to be stimulated by RNASE4 (1 μg/ml) for 3 days. Cell numbers were determined by MTT assay. (D) Human phospho-RTK antibody array analysis of starved PC-3 cells treated with or without 1 μg/ml RNASE4 for 5 minutes. (E) Time course of AXL phosphorylation stimulated by RNASE4 in PC-3 cells. Serum-starved PC-3 cells were treated with 1 μg/ml RNASE4 for different time. Cell lysates were analyzed for total AXL and phopho-AXL by immunoblotting. Left panels, immunoblots; right panel, quantification phospho-AXL normalized to total AXL by Image J analysis. (F) Effect of AXL inhibitor R428 on RNASE4-induced PC-3 cell proliferation. Serum-starved PC-3 cells were incubated with 1 or 3 μM R428 for 3 hours and then stimulated by 1 μg/ml of RNASE4 for 3 days. Cell numbers were determined by MTT assay. Data shown are means±SEM of a representative experiments in triplicates of 3 independent repeats. **P≤0.01 and ***P≤0.001, by unpaired two-tailed Student's t test.

Assay [3] relates to PC-3 cells. As to the kind of experiment: RNASE4 knockdown, cell proliferation (Coulter counter). As to conditions: PC-3, exogenous RNASE4 1 μg/ml. The source says: (§1) FIGS. 13A-D. RNASE4 knockdown reduces prostate cancer cell proliferation in vitro and colony formation in soft agar. (A) Immunoblot analysis of RNASE4 in PC-3 cells stably transfected with shControl, shRNASE4-1, and shRNASE4-2. (B) qRT-PCR analysis of RNASE4 mRNA normalized to GAPDH in PC-3 cells stably transfected with shControl, shRNASE4-1, and shRNASE4-2. (C) Effect of RNASE4 knockdown on cell proliferation. Cell numbers were counted by a Coulter counter. Exogenous RNASE4, when presented, was at the concentration of 1 μg/ml. Data shown are from representative experiment (in triplicates) of 3 independent repeats. (D) Effects of RNASE4 knockdown on colonies formation and growth of PC-3 cells in soft agar. The same numbers of control and RNASE4 knockdown cells were seeded in soft agar, and grown in the absence or presence of 1 μg/ml of RNASE4 for 14 days. Colonies were counted and size measured on a Nikon Eclipse ti microscope. Left panels, representative images of colonies; scale bars=100 μm. Right panels, quantification of colony numbers and sizes. Data shown are means±SEM from five randomly selected fields per dish from a representative experiment. *P≤0.05, **P≤0.01, and ***P≤0.001, by two-tailed Student's t test.
(§2) Lentiviral mediated shRNA system (pGIPZ, Open Biosystems) was used to generate control and RNASE4 knockdown cell lines. […]

The test system of assay [4] is PC-3 cells. As to the kind of experiment: RNASE4 knockdown, colony formation in soft agar. The following applies: PC-3, exogenous RNASE4 1 μg/ml, 14 days.
Excerpt: as §1, §2

Assay [5] deals with LNCaP cells. As to the kind of experiment: RNASE4 knockdown, colony formation in soft agar. The following applies: exogenous RNASE4 1 μg/ml, 14 days.
Excerpt: FIGS. 15A-D. RNASE4 knockdown inhibits LNCaP cell proliferation in vitro and colony formation in soft agar. (A) Immunoblot analysis of RNASE4 in LNCaP cells stably transfected with shControl, shRNASE4-1, and shRNASE4-2. (B) qRT-PCR analysis of RNASE4 mRNA normalized to GAPDH in LNCaP cells stably transfected with shControl, shRNASE4-1, and shRNASE4-2. (C) Effect of RNASE4 knockdown on LNCaP cell proliferation. Cell numbers were counted by Coulter counter. Exogenous RNASE4, when presented, was at the concentration of 1 μg/ml. Data shown are from a representative experiment in triplicates of 3 independent experiments. (D) Effects of RNASE4 knockdown on colonies formation and growth of LNCaP cells in soft agar. The same numbers of control and RNASE4 knockdown cells were seeded in soft agar, and grown in the absence or presence of 1 μg/ml of RNASE4 for 14 days. Colonies were counted and size measured on a Nikon Eclipse ti microscope. Top panels, representative images of colonies; scale bars=100 μm. Bottom panels, quantification of LMCaP cell colonies and sizes in soft agar. Data shown are means±SEM of five randomly selected fields per dish from a representative experiment. **P≤0.01 and ***P≤0.001, by two-tailed Student's t test.
as §2

B1: RNASE4: recombinant human RNASE4 protein from pET11 expression in E. coli, purified by reversed-phase HPLC; added exogenously (protein, UniProt P34096 29-147, looked up)
Ribonuclease 4: QDGMYQRFLRQHVHPEETGGSDRYCNLMMQRRKMTLYHCKRFNTFIHEDIWNIRSICSTTNIQCKNGKMNCHEGVVKVTDCRDTGSSRAPNCRYRAIASTRRVVIACEGNPQVPVHFDG
Consider B1, for which the “activation (phosphorylation) of AKT and S6” value in assay [1] is “rapidly and continuously activated”. Moreover, the cell proliferation entry in assay [2] is recorded as “stimulates”. For the same molecule, the “rescue of the effect of RNASE4 knockdown on cell proliferation” value in assay [3] is “able to rescue”. For the same molecule, the “rescue of the effect of RNASE4 knockdown on colony formation” value in assay [4] and in assay [5] was “able to rescue” each time.

Values taken from US11739161B2, “Methods for treating and diagnosing prostate cancer” (Tufts Medical Center, Inc., priority 2017, dated 2023).
